From paper PMC9482650, “Quantitative fragmentomics allow affinity mapping of interactomes” (Nature Communications, 2022)

T1: GRIP1_2, Q9Y3R0
T1 sequence (Q9Y3R0 145-248, limits assumed, looked up): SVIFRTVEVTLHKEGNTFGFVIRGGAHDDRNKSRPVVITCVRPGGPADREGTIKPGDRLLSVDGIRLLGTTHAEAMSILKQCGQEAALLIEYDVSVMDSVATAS

T2: SNTA1, Q13424
T2 sequence (Q13424 82-180, limits assumed, looked up): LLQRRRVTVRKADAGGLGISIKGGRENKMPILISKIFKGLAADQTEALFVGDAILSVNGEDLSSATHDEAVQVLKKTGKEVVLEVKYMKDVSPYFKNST

T3: CARD11, Q9BXL7
T3 sequence (Q9BXL7 662-765, limits assumed, looked up): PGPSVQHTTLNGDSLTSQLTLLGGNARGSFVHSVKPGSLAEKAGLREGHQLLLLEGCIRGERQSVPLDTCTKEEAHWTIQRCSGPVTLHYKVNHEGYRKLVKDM

T4: SIPA1L2, Q9P2F8
T4 sequence (Q9P2F8 945-1036, limits assumed, looked up): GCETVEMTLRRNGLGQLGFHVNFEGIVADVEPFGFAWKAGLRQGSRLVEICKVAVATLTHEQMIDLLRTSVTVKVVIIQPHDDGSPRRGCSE

T5: NHERF3_3, Q5T2W1
T5 sequence (Q5T2W1 238-333, limits assumed, looked up): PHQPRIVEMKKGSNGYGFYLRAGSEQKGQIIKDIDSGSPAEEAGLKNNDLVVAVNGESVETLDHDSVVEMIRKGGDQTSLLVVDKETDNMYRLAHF

T6: NHERF3_4, Q5T2W1
T6 sequence (Q5T2W1 373-468, limits assumed, looked up): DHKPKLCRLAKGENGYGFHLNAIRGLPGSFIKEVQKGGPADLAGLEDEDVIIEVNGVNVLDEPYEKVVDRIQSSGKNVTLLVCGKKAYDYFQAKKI

T7: HTRA4, P83105
T7 sequence (P83105 378-476, limits assumed, looked up): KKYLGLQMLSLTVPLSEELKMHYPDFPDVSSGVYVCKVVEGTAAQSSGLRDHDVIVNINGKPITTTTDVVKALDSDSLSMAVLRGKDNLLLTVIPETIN

T8: SNTG1, Q9NSN8
T8 sequence (Q9NSN8 52-150, limits assumed, looked up): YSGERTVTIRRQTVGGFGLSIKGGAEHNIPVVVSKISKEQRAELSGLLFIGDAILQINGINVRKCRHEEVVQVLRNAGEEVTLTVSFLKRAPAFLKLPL

T9: PDZD2_2, O15018
T9 sequence (O15018 329-429, limits assumed, looked up): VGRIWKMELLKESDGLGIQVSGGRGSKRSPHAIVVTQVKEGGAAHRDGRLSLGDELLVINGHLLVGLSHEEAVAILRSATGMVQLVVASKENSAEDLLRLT

T10: TJP3_3, O95049
T10 sequence (O95049 375-456, limits assumed, looked up): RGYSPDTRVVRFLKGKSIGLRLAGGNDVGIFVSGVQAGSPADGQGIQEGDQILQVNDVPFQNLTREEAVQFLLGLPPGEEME


Biological target: GRIP2_3, Q9C0E4
Experiment: holdup assay
Design: key: below the threshold = too weak to quantify, mostly under pKd 3.1 to 4
Conditions: plain residues with an end cap or a label only (N-terminal biotin on a linker: ado-ado)

Chain of GRIP2_3, Q9C0E4 (Q9C0E4 238-339): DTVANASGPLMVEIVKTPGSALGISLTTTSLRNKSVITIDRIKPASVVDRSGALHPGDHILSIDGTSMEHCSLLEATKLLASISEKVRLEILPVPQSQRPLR

Binder	pKd
GQNMTVSVVI [PRLHR, P49683]	below the threshold

Biological target: T1, GRIP1_2, Q9Y3R0
Experiment: holdup assay
Design: key: below the threshold = too weak to quantify, mostly under pKd 3.1 to 4
Conditions: plain residues with an end cap or a label only (N-terminal biotin on a linker: ado-ado)

Binder	pKd
GQNMTVSVVI [PRLHR, P49683]	below the threshold

Biological target: T2, SNTA1, Q13424
Experiment: holdup assay
Design: key: below the threshold = too weak to quantify, mostly under pKd 3.1 to 4
Conditions: plain residues with an end cap or a label only (N-terminal biotin on a linker: ado-ado)

Binder	pKd
GQNMTVSVVI [PRLHR, P49683]	3.89

Biological target: PTPN3, P26045
Experiment: holdup assay
Design: key: below the threshold = too weak to quantify, mostly under pKd 3.1 to 4
Conditions: plain residues with an end cap or a label only (N-terminal biotin on a linker: ado-ado)

Chain of PTPN3, P26045 (P26045 505-587): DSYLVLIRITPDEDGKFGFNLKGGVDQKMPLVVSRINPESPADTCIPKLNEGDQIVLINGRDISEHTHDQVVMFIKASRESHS

Binder	pKd
GQNMTVSVVI [PRLHR, P49683]	3.77

Biological target: T3, CARD11, Q9BXL7
Experiment: holdup assay
Design: key: below the threshold = too weak to quantify, mostly under pKd 3.1 to 4
Conditions: plain residues with an end cap or a label only (N-terminal biotin on a linker: ado-ado)

Binder	pKd
GQNMTVSVVI [PRLHR, P49683]	below the threshold

Biological target: T4, SIPA1L2, Q9P2F8
Experiment: holdup assay
Design: key: below the threshold = too weak to quantify, mostly under pKd 3.1 to 4
Conditions: plain residues with an end cap or a label only (N-terminal biotin on a linker: ado-ado)

Binder	pKd
GQNMTVSVVI [PRLHR, P49683]	3.54

Biological target: MAGI2_4, Q86UL8
Experiment: holdup assay
Design: key: below the threshold = too weak to quantify, mostly under pKd 3.1 to 4
Conditions: plain residues with an end cap or a label only (N-terminal biotin on a linker: ado-ado)

Chain of MAGI2_4, Q86UL8 (Q86UL8 772-865): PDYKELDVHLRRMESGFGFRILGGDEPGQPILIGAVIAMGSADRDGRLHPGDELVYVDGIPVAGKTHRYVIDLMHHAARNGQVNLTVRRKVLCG

Binder	pKd
GQNMTVSVVI [PRLHR, P49683]	below the threshold

Biological target: T5, NHERF3_3, Q5T2W1
Experiment: holdup assay
Design: key: below the threshold = too weak to quantify, mostly under pKd 3.1 to 4
Conditions: plain residues with an end cap or a label only (N-terminal biotin on a linker: ado-ado)

Binder	pKd
GQNMTVSVVI [PRLHR, P49683]	4.02

Biological target: LNX1_3, Q8TBB1
Experiment: holdup assay
Design: key: below the threshold = too weak to quantify, mostly under pKd 3.1 to 4
Conditions: plain residues with an end cap or a label only (N-terminal biotin on a linker: ado-ado)

Chain of LNX1_3, Q8TBB1 (Q8TBB1 500-596): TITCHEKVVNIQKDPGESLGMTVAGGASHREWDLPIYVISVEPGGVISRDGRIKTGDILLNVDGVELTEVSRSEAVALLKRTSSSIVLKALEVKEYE

Binder	pKd
GQNMTVSVVI [PRLHR, P49683]	below the threshold

Biological target: NHERF4_2, Q86UT5
Experiment: holdup assay
Design: key: below the threshold = too weak to quantify, mostly under pKd 3.1 to 4
Conditions: plain residues with an end cap or a label only (N-terminal biotin on a linker: ado-ado)

Chain of NHERF4_2, Q86UT5 (Q86UT5 220-308): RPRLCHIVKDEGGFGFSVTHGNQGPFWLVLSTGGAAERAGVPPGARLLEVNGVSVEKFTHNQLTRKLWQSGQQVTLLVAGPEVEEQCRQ

Binder	pKd
GQNMTVSVVI [PRLHR, P49683]	below the threshold

Biological target: SCRIB_2, Q14160
Experiment: holdup assay
Design: key: below the threshold = too weak to quantify, mostly under pKd 3.1 to 4
Conditions: plain residues with an end cap or a label only (N-terminal biotin on a linker: ado-ado)

Chain of SCRIB_2, Q14160 (Q14160 857-960): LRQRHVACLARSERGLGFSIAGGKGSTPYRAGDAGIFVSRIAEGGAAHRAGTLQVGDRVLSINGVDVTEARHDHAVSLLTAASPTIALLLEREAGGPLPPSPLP

Binder	pKd
GQNMTVSVVI [PRLHR, P49683]	below the threshold

Biological target: T6, NHERF3_4, Q5T2W1
Experiment: holdup assay
Design: key: below the threshold = too weak to quantify, mostly under pKd 3.1 to 4
Conditions: plain residues with an end cap or a label only (N-terminal biotin on a linker: ado-ado)

Binder	pKd
GQNMTVSVVI [PRLHR, P49683]	3.73

Biological target: GOPC, Q9HD26
Experiment: holdup assay
Design: key: below the threshold = too weak to quantify, mostly under pKd 3.1 to 4
Conditions: plain residues with an end cap or a label only (N-terminal biotin on a linker: ado-ado)

Binder	pKd
GQNMTVSVVI [PRLHR, P49683]	below the threshold

Biological target: FRMPD2_1, Q68DX3
Experiment: holdup assay
Design: key: below the threshold = too weak to quantify, mostly under pKd 3.1 to 4
Conditions: plain residues with an end cap or a label only (N-terminal biotin on a linker: ado-ado)

Chain of FRMPD2_1, Q68DX3 (Q68DX3 770-861): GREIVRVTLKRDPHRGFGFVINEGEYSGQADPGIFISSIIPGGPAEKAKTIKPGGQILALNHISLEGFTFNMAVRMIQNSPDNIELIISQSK

Binder	pKd
GQNMTVSVVI [PRLHR, P49683]	below the threshold

Biological target: Inadl_5, Q8NI35
Experiment: holdup assay
Design: key: below the threshold = too weak to quantify, mostly under pKd 3.1 to 4
Conditions: plain residues with an end cap or a label only (N-terminal biotin on a linker: ado-ado)

Chain of Inadl_5, Q8NI35 (Q8NI35 673-780): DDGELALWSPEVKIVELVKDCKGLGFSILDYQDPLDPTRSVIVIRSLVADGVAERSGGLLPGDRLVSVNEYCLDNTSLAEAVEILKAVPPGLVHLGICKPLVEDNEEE

Binder	pKd
GQNMTVSVVI [PRLHR, P49683]	below the threshold

Biological target: LDB3, O75112
Experiment: holdup assay
Design: key: below the threshold = too weak to quantify, mostly under pKd 3.1 to 4
Conditions: plain residues with an end cap or a label only (N-terminal biotin on a linker: ado-ado)

Chain of LDB3, O75112 (O75112 1-94): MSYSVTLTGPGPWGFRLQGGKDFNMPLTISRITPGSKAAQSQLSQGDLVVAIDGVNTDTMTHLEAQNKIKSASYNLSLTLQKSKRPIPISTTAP

Binder	pKd
GQNMTVSVVI [PRLHR, P49683]	below the threshold

Biological target: T7, HTRA4, P83105
Experiment: holdup assay
Design: key: below the threshold = too weak to quantify, mostly under pKd 3.1 to 4
Conditions: plain residues with an end cap or a label only (N-terminal biotin on a linker: ado-ado)

Binder	pKd
GQNMTVSVVI [PRLHR, P49683]	4.15

Biological target: Inadl_6, Q8NI35
Experiment: holdup assay
Design: key: below the threshold = too weak to quantify, mostly under pKd 3.1 to 4
Conditions: plain residues with an end cap or a label only (N-terminal biotin on a linker: ado-ado)

Chain of Inadl_6, Q8NI35 (Q8NI35 1058-1167): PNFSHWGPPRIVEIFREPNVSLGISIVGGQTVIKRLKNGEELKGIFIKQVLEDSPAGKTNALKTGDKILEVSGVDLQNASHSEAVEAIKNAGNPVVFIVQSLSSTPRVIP

Binder	pKd
GQNMTVSVVI [PRLHR, P49683]	below the threshold

Biological target: T8, SNTG1, Q9NSN8
Experiment: holdup assay
Design: key: below the threshold = too weak to quantify, mostly under pKd 3.1 to 4
Conditions: plain residues with an end cap or a label only (N-terminal biotin on a linker: ado-ado)

Binder	pKd
GQNMTVSVVI [PRLHR, P49683]	below the threshold

Biological target: PICK1, Q9NRD5
Experiment: holdup assay
Design: key: below the threshold = too weak to quantify, mostly under pKd 3.1 to 4
Conditions: plain residues with an end cap or a label only (N-terminal biotin on a linker: ado-ado)

Chain of PICK1, Q9NRD5 (Q9NRD5 17-115): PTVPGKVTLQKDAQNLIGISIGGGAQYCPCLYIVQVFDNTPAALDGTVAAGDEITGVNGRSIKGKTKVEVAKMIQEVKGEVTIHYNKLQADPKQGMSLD

Binder	pKd
GQNMTVSVVI [PRLHR, P49683]	below the threshold

Biological target: GRIP2_4, Q9C0E4
Experiment: holdup assay
Design: key: below the threshold = too weak to quantify, mostly under pKd 3.1 to 4
Conditions: plain residues with an end cap or a label only (N-terminal biotin on a linker: ado-ado)

Chain of GRIP2_4, Q9C0E4 (Q9C0E4 446-548): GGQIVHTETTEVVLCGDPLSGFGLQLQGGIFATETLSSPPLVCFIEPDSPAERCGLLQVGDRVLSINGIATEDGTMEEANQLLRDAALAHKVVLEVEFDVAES

Binder	pKd
GQNMTVSVVI [PRLHR, P49683]	below the threshold

Biological target: DLG2_2, Q15700
Experiment: holdup assay
Design: key: below the threshold = too weak to quantify, mostly under pKd 3.1 to 4
Conditions: plain residues with an end cap or a label only (N-terminal biotin on a linker: ado-ado)

Chain of DLG2_2, Q15700 (Q15700 189-283): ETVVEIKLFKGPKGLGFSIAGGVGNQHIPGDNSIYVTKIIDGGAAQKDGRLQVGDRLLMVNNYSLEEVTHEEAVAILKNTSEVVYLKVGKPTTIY

Binder	pKd
GQNMTVSVVI [PRLHR, P49683]	below the threshold

Biological target: T9, PDZD2_2, O15018
Experiment: holdup assay
Design: key: below the threshold = too weak to quantify, mostly under pKd 3.1 to 4
Conditions: plain residues with an end cap or a label only (N-terminal biotin on a linker: ado-ado)

Binder	pKd
GQNMTVSVVI [PRLHR, P49683]	below the threshold

Biological target: CASK, O14936
Experiment: holdup assay
Design: key: below the threshold = too weak to quantify, mostly under pKd 3.1 to 4
Conditions: plain residues with an end cap or a label only (N-terminal biotin on a linker: ado-ado)

Chain of CASK, O14936 (O14936 487-570): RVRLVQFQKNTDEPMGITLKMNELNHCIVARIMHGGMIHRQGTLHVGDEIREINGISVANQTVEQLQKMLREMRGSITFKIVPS

Binder	pKd
GQNMTVSVVI [PRLHR, P49683]	below the threshold

Biological target: MAGI2_3, Q86UL8
Experiment: holdup assay
Design: key: below the threshold = too weak to quantify, mostly under pKd 3.1 to 4
Conditions: plain residues with an end cap or a label only (N-terminal biotin on a linker: ado-ado)

Chain of MAGI2_3, Q86UL8 (Q86UL8 600-682): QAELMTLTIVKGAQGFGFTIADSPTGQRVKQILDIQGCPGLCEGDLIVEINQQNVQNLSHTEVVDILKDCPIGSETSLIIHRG

Binder	pKd
GQNMTVSVVI [PRLHR, P49683]	below the threshold

Biological target: T10, TJP3_3, O95049
Experiment: holdup assay
Design: key: below the threshold = too weak to quantify, mostly under pKd 3.1 to 4
Conditions: plain residues with an end cap or a label only (N-terminal biotin on a linker: ado-ado)

Binder	pKd
GQNMTVSVVI [PRLHR, P49683]	below the threshold

Biological target: MAGI2_5, Q86UL8
Experiment: holdup assay
Design: key: below the threshold = too weak to quantify, mostly under pKd 3.1 to 4
Conditions: plain residues with an end cap or a label only (N-terminal biotin on a linker: ado-ado)

Chain of MAGI2_5, Q86UL8 (Q86UL8 915-1017): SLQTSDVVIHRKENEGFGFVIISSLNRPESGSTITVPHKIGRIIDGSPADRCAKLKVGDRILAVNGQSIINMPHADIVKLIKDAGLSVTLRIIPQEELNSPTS

Binder	pKd
GQNMTVSVVI [PRLHR, P49683]	below the threshold

Biological target: HTRA1, Q92743
Experiment: holdup assay
Design: key: below the threshold = too weak to quantify, mostly under pKd 3.1 to 4
Conditions: plain residues with an end cap or a label only (N-terminal biotin on a linker: ado-ado)

Chain of HTRA1, Q92743 (Q92743 360-477): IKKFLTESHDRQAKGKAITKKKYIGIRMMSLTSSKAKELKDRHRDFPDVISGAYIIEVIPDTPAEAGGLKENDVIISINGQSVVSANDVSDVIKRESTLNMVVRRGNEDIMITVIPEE

Binder	pKd
GQNMTVSVVI [PRLHR, P49683]	4.82

Biological target: MAST1, Q9Y2H9
Experiment: holdup assay
Design: key: below the threshold = too weak to quantify, mostly under pKd 3.1 to 4
Conditions: plain residues with an end cap or a label only (N-terminal biotin on a linker: ado-ado)

Chain of MAST1, Q9Y2H9 (Q9Y2H9 962-1065): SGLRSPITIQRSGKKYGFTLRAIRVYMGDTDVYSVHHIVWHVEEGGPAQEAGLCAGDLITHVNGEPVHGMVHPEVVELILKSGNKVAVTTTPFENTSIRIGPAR

Binder	pKd
GQNMTVSVVI [PRLHR, P49683]	3.9
